From publication PMC4180972

Biological target: Flag-TIN2 (human) (UniProt Q9BSI4)
Assay: co-IP

Chain of UniProt Q9BSI4 (Q9BSI4 whole entry): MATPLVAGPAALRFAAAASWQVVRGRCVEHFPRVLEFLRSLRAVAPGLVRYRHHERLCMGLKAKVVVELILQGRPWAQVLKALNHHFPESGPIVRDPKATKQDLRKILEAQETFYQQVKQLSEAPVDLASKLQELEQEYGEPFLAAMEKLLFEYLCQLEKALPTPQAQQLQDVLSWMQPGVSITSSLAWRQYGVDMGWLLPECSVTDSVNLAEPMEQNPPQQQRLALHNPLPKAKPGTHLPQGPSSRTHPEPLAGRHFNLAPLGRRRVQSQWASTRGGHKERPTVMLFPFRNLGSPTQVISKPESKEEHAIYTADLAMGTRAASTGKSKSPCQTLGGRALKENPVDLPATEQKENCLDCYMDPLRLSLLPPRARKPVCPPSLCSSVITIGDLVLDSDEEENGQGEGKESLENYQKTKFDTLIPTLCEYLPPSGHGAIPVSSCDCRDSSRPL

fold reduction in TIN2 association against wild-type TPP1: 2 fold
Substance: Flag-tagged TPP1-P491T (from UniProt Q96AP0-3 1-458) (natural protein)
